Assay results from the nanobody polyreactivity screen of Harvey et al. (2022).

Experiment: yeast display, Sf9 membrane polyspecificity reagent, FACS + sequencing; frameworks hold sequencing errors
Summary of the method: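 A synthetic nanobody library was expressed on Saccharomyces cerevisiae BJ5465 by galactose induction for 36–48 hours. The library was stained for 1 hour at 4 °C with 10% biotinylated, detergent-solubilized Sf9 membrane reagent and enriched with streptavidin microbeads before FACS. Low and high (top ~1%) gates were set on anti-HA fluorescence for expression and streptavidin fluorescence for reagent binding, and each polyreactivity label reflects the gate of origin.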

| Sequence | polyreactivity (PSR sort gate) |
| --- | --- |
| QVQLVESGGGLVQAGGSLRLSCAASGRTFWLNAMGWYRQAPGKERELVATISRGGSTNYADSVKGRFTISRDNANNTVYLQMNSLKPEDTAVYYCAARRYYWLRGYNYWGQGTQVTVSS | high polyreactivity |
| QVQLVESGGGLVQAGGSLRLSCAASGRTFWNYAMGCYRQAPGKERELVAAISSSGGTTYYADSVKGRFTISRDNAKNTVYLQMNTLKPEDTAVYYCAATGVSKPQRSFGYWGQGTQVTVSS | low polyreactivity |
| QVQLVESGGGLVQAGGSLRLSCAASGRTFWNYAMGWYRQAPGKERELVAAISSSGGTTYYADSVKGRFTISRDNAKNTVYLQMNSLKPEDTAVYYCAATGVSKPQRSFGYWGQGTQVTVSS | low polyreactivity |
| QVQLVESGGGLVQAGGSLRLSCAASGRTFWNYAMGWYRQAPGKEREMVAVIRFSDGSTYYADSVKGRFTISRDNAKNTVYLQMNSLKPEDTAVYYCAAKGPRRWGSGFDYWGQGTQVTVSS | low polyreactivity |
| QVQLVESGGGLVQAGGSLRLSCAASGRTFWTNAMGWYRQAPGKEREFVAAISWRGASTFYADSVKGRFTISRDNAKNTVYLQMNSLNPEDTAVYYCAAQSRTRSFYGKYDSWGQATQVTVSS | low polyreactivity |
| QVQLVESGGGLVQAGGSLRLSCAASGRTFWVYAMGWYRQATGKERELVATISKSAGITSYADSVKGRFTFSRDNAKNTVYLQMNSLKPEDTAVFYCAADKSYRRVYYWGQGTQVTVSS | low polyreactivity |
| QVQLVESGGGLVQAGGSLRLSCAASGRTFWWYAMGWYRQAPGKERELVAAITQSGGSTFYADSVKGRFTISRDNAKNTVYLQMNSLKPEDTAVYYWGQGTQVTVSS | low polyreactivity |
| QVQLVESGGGLVQAGGSLRLSCAASGRTFWWYAMGWYRQAPGKERELVAGISGSTGTTHYADSVKGRFTISRDNAKNTVYLQMNSLKPEDTAGYYCAARRRYYRGFLFDYWGQGTQVTVSS | high polyreactivity |
| QVQLVESGGGLVQAGGSLRLSCAASGRTFWYNAMGWYRQAPGKERELVAAITSSGGSTYYADSVKGRFTISRDNAKNTVYLQMNSLKPEDTAVYYCNKRPGPYKWPPRHDYWGQGTQVTVSS | low polyreactivity |
| QVQLVESGGGLVQAGGSLRLSCAASGRTFWYNAMGWYRQAPGKERELVATINSVGSTNYADSVKGRFTISRDNAKNTVYLQMNSLKPEDTAVYDCNAGYGYVRGRKGGAIVKYYYWGQGTQVTVSS | high polyreactivity |
| QVQLVESGGGLVQAGGSLRLSCAASGRTFWYNARGWYRQAPGKERELVAAITRGGGRTYYADSVKGRFTISRDNAKNTVYLQMNSPKPEDTAVYYCADDSHYDMNYWGQGTQVTVSS | low polyreactivity |
| QVQLVESGGGLVQAGGSLRLSCAASGRTFWYYAMGWYREAPGKERELVAAITRGGRTNYADSVKGRFTISRDNAKNTVYLQMKSLKPEDTAVYYCAADYRYPAHSYGYWGQGTLVTVSS | high polyreactivity |
| QVQLVESGGGLVQAGGSLRLSCAASGRTFWYYAMGWYRQAPGKERELVAAITWSGSDTYYADSVKGRFTISRDNAKNTVYLLMNSLKPEDTAVYYCAAEYSYESSGYDYWGQGTQVTVSS | high polyreactivity |
| QVQLVESGGGLVQAGGSLRLSCAASGRTFWYYAMGWYRQAPGKERELVAGITFTGGRTYYADSVKGRFTISRDNAKNTVYLQMNSLKPEDTAVYYCAKATEYYAESDDYDYWGQGTQVTVSS | low polyreactivity |
| QVQLVESGGGLVQAGGSLRLSCAASGRTFWYYAMGWYRQAPGKERELVASISASGGSTFYADSVKGRFSISRDHAKNTVYLQMNSLKPEDTAVYYCAAKNAVWRRYEYWGQGTQVTVSS | high polyreactivity |
| QVQLVESGGGLVQAGGSLRLSCAASGRTFYANAMGWYRQAPGKERELVAAISRGGRTYYADSVKGRFTISRDNAKNTVYLQMNIMIPEDTSVYYCAARHTTTAVYSYYRADGGYWGQGTQVTVSS | low polyreactivity |
| QVQLVESGGGLVQAGGSLRLSCAASGRTFYANAMVWYRQAPGKERELVAGISYSGGNTYYADSVKGRFTISRDNAKNTVYIQMNSLKPEDTAVYYCAAATVWEYWTYEDWGQGTQVTVSS | low polyreactivity |
